The results in this text go back to US20260193335A1 (ZOETIS SERVICES, published 2026).

To fix the notation:
B1: mAb4 (felinized anti-IL31 antibody ZTS-5864) S428L and S434P, feline IgG1a (antibody)
heavy: DVQLVESGGDLVKPGGSLRLTCVASGFTFSDYAMSWVRQAPGKGLQWVAGIDSVGSGTSYADSVKGRFTISRDNAKNTLYLQMNSLKTEDTATYYCASGFPGSFEHWGQGTLVTVSSASTTAPSVFPLAPSCGTTSGATVALACLVLGYFPEPVTVSWNSGALTSGVHTFPAVLQASGLYSLSSMVTVPSSRWLSDTFTCNVAHPPSNTKVDKTVRKTDHPPGPKPCDCPKCPPPEMLGGPSIFIFPPKPKDTLSISRTPEVTCLVVDLGPDDSDVQITWFVDNTQVYTAKTSPREEQFNSTYRVVSVLPILHQDWLKGKEFKCKVNSKSLPSPIERTISKAKGQPHEPQVYVLPPAQEELSRNKVSVTCLIKSFHPPDIAVEWEITGQPEPENNYRTTPPQLDSDGTYFVYSKLSVDRSHWQRGNTYTCSVLHEALHPHHTQKSLTQSPGK
VL: QSVLTQPSSVSGTLGQRITISCTGSSSNIGSGYVGWYQQVPGMGPKTVIYYNSDRPSGVPDRFSGSKSGSSGTLTITGLQAEDEADYYCSVYDRTFNAVFGGGT
notes: also called mAb4 ID No. 25
B2: mAb4 (felinized anti-IL31 antibody ZTS-5864) S428M and S434H, feline IgG1a (antibody)
heavy: DVQLVESGGDLVKPGGSLRLTCVASGFTFSDYAMSWVRQAPGKGLQWVAGIDSVGSGTSYADSVKGRFTISRDNAKNTLYLQMNSLKTEDTATYYCASGFPGSFEHWGQGTLVTVSSASTTAPSVFPLAPSCGTTSGATVALACLVLGYFPEPVTVSWNSGALTSGVHTFPAVLQASGLYSLSSMVTVPSSRWLSDTFTCNVAHPPSNTKVDKTVRKTDHPPGPKPCDCPKCPPPEMLGGPSIFIFPPKPKDTLSISRTPEVTCLVVDLGPDDSDVQITWFVDNTQVYTAKTSPREEQFNSTYRVVSVLPILHQDWLKGKEFKCKVNSKSLPSPIERTISKAKGQPHEPQVYVLPPAQEELSRNKVSVTCLIKSFHPPDIAVEWEITGQPEPENNYRTTPPQLDSDGTYFVYSKLSVDRSHWQRGNTYTCSVMHEALHHHHTQKSLTQSPGK
VL: QSVLTQPSSVSGTLGQRITISCTGSSSNIGSGYVGWYQQVPGMGPKTVIYYNSDRPSGVPDRFSGSKSGSSGTLTITGLQAEDEADYYCSVYDRTFNAVFGGGT
notes: also called mAb4 ID No. 32
B3: mAb4 (felinized anti-IL31 antibody ZTS-5864) S428Y and S434F, feline IgG1a (antibody)
heavy: DVQLVESGGDLVKPGGSLRLTCVASGFTFSDYAMSWVRQAPGKGLQWVAGIDSVGSGTSYADSVKGRFTISRDNAKNTLYLQMNSLKTEDTATYYCASGFPGSFEHWGQGTLVTVSSASTTAPSVFPLAPSCGTTSGATVALACLVLGYFPEPVTVSWNSGALTSGVHTFPAVLQASGLYSLSSMVTVPSSRWLSDTFTCNVAHPPSNTKVDKTVRKTDHPPGPKPCDCPKCPPPEMLGGPSIFIFPPKPKDTLSISRTPEVTCLVVDLGPDDSDVQITWFVDNTQVYTAKTSPREEQFNSTYRVVSVLPILHQDWLKGKEFKCKVNSKSLPSPIERTISKAKGQPHEPQVYVLPPAQEELSRNKVSVTCLIKSFHPPDIAVEWEITGQPEPENNYRTTPPQLDSDGTYFVYSKLSVDRSHWQRGNTYTCSVYHEALHFHHTQKSLTQSPGK
VL: QSVLTQPSSVSGTLGQRITISCTGSSSNIGSGYVGWYQQVPGMGPKTVIYYNSDRPSGVPDRFSGSKSGSSGTLTITGLQAEDEADYYCSVYDRTFNAVFGGGT
notes: also called mAb4 ID No. 28
B4: mAb4 (felinized anti-IL31 antibody ZTS-5864) S428V, feline IgG1a (antibody)
heavy: DVQLVESGGDLVKPGGSLRLTCVASGFTFSDYAMSWVRQAPGKGLQWVAGIDSVGSGTSYADSVKGRFTISRDNAKNTLYLQMNSLKTEDTATYYCASGFPGSFEHWGQGTLVTVSSASTTAPSVFPLAPSCGTTSGATVALACLVLGYFPEPVTVSWNSGALTSGVHTFPAVLQASGLYSLSSMVTVPSSRWLSDTFTCNVAHPPSNTKVDKTVRKTDHPPGPKPCDCPKCPPPEMLGGPSIFIFPPKPKDTLSISRTPEVTCLVVDLGPDDSDVQITWFVDNTQVYTAKTSPREEQFNSTYRVVSVLPILHQDWLKGKEFKCKVNSKSLPSPIERTISKAKGQPHEPQVYVLPPAQEELSRNKVSVTCLIKSFHPPDIAVEWEITGQPEPENNYRTTPPQLDSDGTYFVYSKLSVDRSHWQRGNTYTCSVVHEALHSHHTQKSLTQSPGK
VL: QSVLTQPSSVSGTLGQRITISCTGSSSNIGSGYVGWYQQVPGMGPKTVIYYNSDRPSGVPDRFSGSKSGSSGTLTITGLQAEDEADYYCSVYDRTFNAVFGGGT
notes: also called mAb4 ID No. 18
B5: mAb4 (felinized anti-IL31 antibody ZTS-5864) S428M and S434P, feline IgG1a, ID No. 35 (antibody)
heavy: DVQLVESGGDLVKPGGSLRLTCVASGFTFSDYAMSWVRQAPGKGLQWVAGIDSVGSGTSYADSVKGRFTISRDNAKNTLYLQMNSLKTEDTATYYCASGFPGSFEHWGQGTLVTVSSASTTAPSVFPLAPSCGTTSGATVALACLVLGYFPEPVTVSWNSGALTSGVHTFPAVLQASGLYSLSSMVTVPSSRWLSDTFTCNVAHPPSNTKVDKTVRKTDHPPGPKPCDCPKCPPPEMLGGPSIFIFPPKPKDTLSISRTPEVTCLVVDLGPDDSDVQITWFVDNTQVYTAKTSPREEQFNSTYRVVSVLPILHQDWLKGKEFKCKVNSKSLPSPIERTISKAKGQPHEPQVYVLPPAQEELSRNKVSVTCLIKSFHPPDIAVEWEITGQPEPENNYRTTPPQLDSDGTYFVYSKLSVDRSHWQRGNTYTCSVMHEALHPHHTQKSLTQSPGK
VL: QSVLTQPSSVSGTLGQRITISCTGSSSNIGSGYVGWYQQVPGMGPKTVIYYNSDRPSGVPDRFSGSKSGSSGTLTITGLQAEDEADYYCSVYDRTFNAVFGGGT
notes: Same printed mutations as ID No. 50; also called mAb4 ID No. 35
B6: mAb4 (felinized anti-IL31 antibody ZTS-5864) S428L and S434W, feline IgG1a (antibody)
heavy: DVQLVESGGDLVKPGGSLRLTCVASGFTFSDYAMSWVRQAPGKGLQWVAGIDSVGSGTSYADSVKGRFTISRDNAKNTLYLQMNSLKTEDTATYYCASGFPGSFEHWGQGTLVTVSSASTTAPSVFPLAPSCGTTSGATVALACLVLGYFPEPVTVSWNSGALTSGVHTFPAVLQASGLYSLSSMVTVPSSRWLSDTFTCNVAHPPSNTKVDKTVRKTDHPPGPKPCDCPKCPPPEMLGGPSIFIFPPKPKDTLSISRTPEVTCLVVDLGPDDSDVQITWFVDNTQVYTAKTSPREEQFNSTYRVVSVLPILHQDWLKGKEFKCKVNSKSLPSPIERTISKAKGQPHEPQVYVLPPAQEELSRNKVSVTCLIKSFHPPDIAVEWEITGQPEPENNYRTTPPQLDSDGTYFVYSKLSVDRSHWQRGNTYTCSVLHEALHWHHTQKSLTQSPGK
VL: QSVLTQPSSVSGTLGQRITISCTGSSSNIGSGYVGWYQQVPGMGPKTVIYYNSDRPSGVPDRFSGSKSGSSGTLTITGLQAEDEADYYCSVYDRTFNAVFGGGT
notes: also called mAb4 ID No. 26
B7: mAb4 (felinized anti-IL31 antibody ZTS-5864) S428M and S434L, feline IgG1a, ID No. 34 (antibody)
heavy: DVQLVESGGDLVKPGGSLRLTCVASGFTFSDYAMSWVRQAPGKGLQWVAGIDSVGSGTSYADSVKGRFTISRDNAKNTLYLQMNSLKTEDTATYYCASGFPGSFEHWGQGTLVTVSSASTTAPSVFPLAPSCGTTSGATVALACLVLGYFPEPVTVSWNSGALTSGVHTFPAVLQASGLYSLSSMVTVPSSRWLSDTFTCNVAHPPSNTKVDKTVRKTDHPPGPKPCDCPKCPPPEMLGGPSIFIFPPKPKDTLSISRTPEVTCLVVDLGPDDSDVQITWFVDNTQVYTAKTSPREEQFNSTYRVVSVLPILHQDWLKGKEFKCKVNSKSLPSPIERTISKAKGQPHEPQVYVLPPAQEELSRNKVSVTCLIKSFHPPDIAVEWEITGQPEPENNYRTTPPQLDSDGTYFVYSKLSVDRSHWQRGNTYTCSVMHEALHLHHTQKSLTQSPGK
VL: QSVLTQPSSVSGTLGQRITISCTGSSSNIGSGYVGWYQQVPGMGPKTVIYYNSDRPSGVPDRFSGSKSGSSGTLTITGLQAEDEADYYCSVYDRTFNAVFGGGT
notes: Same printed mutations as ID No. 49; also called mAb4 ID No. 34

The experiment has as its target T1, Feline FcRn (complex of FcRn-α subunit and β-microglobulin, C-terminal His tag) (feline, UniProt A0ABI7ZNY9 23-296; Q5MGS7 21-118).
T1 construct: treated here as one molecule
In words: SPR Biacore, biotin-FcRn on SA chip, pH 6. The procedure: Feline FcRn was isolated, prepared and mutant Fc IgGs were assayed against feline FcRn according to Strietzel et. al., discussed above. Standard PCR was used to amplify feline FcRn-α subunit and β-microglobulin. FcRn-α subunit and β-microglobulin were co-transfected into HEK 293 cells and the FcRn complex was purified by IMAC affinity purification via the c-terminal His tag. FcRn complex was biotin labeled through BirA enzymatic biotinylatoin reaction. KD's were measured by Biacore T200 (GE Healthcare, Pittsburgh, PA, USA) or Biacore 8K (Cytiva, Marlborough, MA, USA) using a SA sensor chip.
FcRn was captured on the surface of the sensor using a modified SA capture method. 10 mM MES; 150 mM NaCl; 0.005% Tween20; 0.5 mg/mL BSA; pH6 was used as capture, method running buffer and titrations. 1×HBS-P, 0.5 mg/mL BSA; pH7.4 was also used for method running buffer and titrations. Fc mutant IgGs were flowed over receptor surfaces and affinity was determined using T200 evaluation software or Biacore Insight Evaluation software. Blank runs containing buffer only were subtracted out from all runs. Flow cells were regenerated using 50 mM Tris pH8 or pH9. Runs were performed at 15° C.
B1 gave an equilibrium dissociation constant (Kd) of 2250 nM.

As to B2, the Kd came out at 17.2 nM.

The molecule B3 registered a Kd of 18.9 nM.

Regarding B4, the dissociation constant Kd was found to be 63.9 nM.

B5 registered a Kd of 42 nM.

Molecule B6 came in with a dissociation constant (Kd) of 17.2 nM.

Molecule B7 gave a Kd of 28.3 nM.
